Measurements published in patent US7510845B2, “Assay employing G protein-coupled receptor expressed in dorsal root ganglia” (California Institute of Technology, priority 2000, dated 2009).
“Also recorded” adds a separate entry of the source. Ends that are not written are not given here.

How the values were obtained:
MRGA4 [1] = target: T1, MRGA4 (Mus musculus, UniProt Q91WW2, A204G); assay: Intracellular Ca2+ release assay (Fura-2), MRGA4-GFP in HEK-Gα15 cells; format: cell-based; conditions: HEK cells expressing Gα15
T1 construct: cDNAs encoding eight full-length variants of Mrg receptors (mMrgA1-8) are provided; expressed in transfected cells; host or cells: HEK293-Galpha15 (A2) or HEK293 lacking Galpha15 (A5), transient transfection with FuGENE 6
T1 sequence (Q91WW2 9-313 A204G limits assumed): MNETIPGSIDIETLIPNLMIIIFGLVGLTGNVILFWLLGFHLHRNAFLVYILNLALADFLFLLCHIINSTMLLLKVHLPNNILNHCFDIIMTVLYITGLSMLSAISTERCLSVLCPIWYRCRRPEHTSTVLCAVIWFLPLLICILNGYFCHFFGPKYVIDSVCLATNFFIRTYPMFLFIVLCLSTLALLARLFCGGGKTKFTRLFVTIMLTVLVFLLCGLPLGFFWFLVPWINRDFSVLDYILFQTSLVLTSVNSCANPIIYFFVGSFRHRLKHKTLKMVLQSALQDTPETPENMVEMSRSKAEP
Experimental: To identify ligands for the Mrg receptors, selected MrgA genes were tested in a calcium release assay. MrgA genes, including MrgA1 and MrgA4, were cloned into a eukaryotic expression vector and transfected into human embryonic kidney (HEK) 293 cells. HEK-293 cells were obtained from the ATCC and cultured in DMEM supplemented with 10% fetal bovine serum. […]
To increase the sensitivity of the calcium release assay, in some experiments the MRGA-GFP fusion proteins were expressed in HEK 293 cells modified to express Gα15, which couples GPCRs to a signal transduction pathway leading to the release of intracellular free Ca^2+ (Offermann and Simon J Biol Chem 270: 15175-80 (1995)). This calcium release can be monitored ratiometrically using Fura-2 as a fluorescent indicator dye (Tsien et al. Cell Calcium 6: 145-57 (1985)) (FIGS. 11A-C). […]
Briefly, transfected cells were washed once in Hank's balanced salt solution with 11 mM D-glucose and 10 mM HEPES, pH 7.4 (assay buffer) and loaded with 2 μM Fura-2 AM (Molecular Probes) at room temperature for 90 min, with rotation. […] A cooled CCD camera (Photometric) was used in detecting fluorescence. […] Fura-2 fluorescence signals (340 nm, 380 nm and the 340/380 ratio) originating from GFP-positive cells were continuously monitored at 0.4- or 1-second intervals and collected using Axon Imaging Workbench 4.0 software (Axon). […]

MRGA1 [2] = target: T2, MRGA1 (Mus musculus, UniProt Q91WW5); assay: Intracellular Ca2+ release assay (Fura-2), MRGA1-GFP in HEK-Gα15 cells; format: cell-based; conditions: for Activation of MrgA1 in dose-response experiments: HEK cells expressing Gα15; for Calcium response of MRGA1-expressing cells to ligand: HEK-Gα15 cells, ligand 1 μM
T2 construct: cDNAs encoding eight full-length variants of Mrg receptors (mMrgA1-8) are provided; expressed in transfected cells; host or cells: HEK293-Galpha15 (A1) or HEK293 lacking Galpha15 (A4), transient transfection with FuGENE 6
T2 sequence (Q91WW5 1-304): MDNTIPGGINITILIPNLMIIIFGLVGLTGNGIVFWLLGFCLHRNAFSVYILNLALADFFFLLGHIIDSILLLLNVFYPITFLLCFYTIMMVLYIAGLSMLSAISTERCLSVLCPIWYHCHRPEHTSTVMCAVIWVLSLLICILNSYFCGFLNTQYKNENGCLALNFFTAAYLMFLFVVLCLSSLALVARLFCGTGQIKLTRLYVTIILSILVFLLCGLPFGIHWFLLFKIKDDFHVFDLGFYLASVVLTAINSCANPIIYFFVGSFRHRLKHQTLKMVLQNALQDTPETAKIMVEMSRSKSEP
Experimental: (§1) To identify ligands for the Mrg receptors, selected MrgA genes were tested in a calcium release assay. MrgA genes, including MrgA1 and MrgA4, were cloned into a eukaryotic expression vector and transfected into human embryonic kidney (HEK) 293 cells. HEK-293 cells were obtained from the ATCC and cultured in DMEM supplemented with 10% fetal bovine serum. An HEK293-Gα15 cell line stably expressing Gα15 was provided by Aurora Biosciences Corporation and grown on Matrigel™ (growth factor reduced Matrigel, Becton Dickinson, diluted 1:200 with serum-free DMEM)-coated flasks and maintained at 37° C. in DMEM (GibcoBRL) supplemented with 10% heat-inactivated fetal bovine serum, 2 mM L-glutamine, 0.1 mM non-essential amino acids, 1 mM sodium pyruvate, 25 mM HEPES and 3 μg/ml blastcidin-S. For transfection, cells were seeded on Matrigel-coated 35 mm glass-bottom dishes (Bioptech Inc., Butler, Pa.). After 16-24 hr, cells were transfected using FuGENE 6 (Roche).
To increase the sensitivity of the calcium release assay, in some experiments the MRGA-GFP fusion proteins were expressed in HEK 293 cells modified to express Gα15, which couples GPCRs to a signal transduction pathway leading to the release of intracellular free Ca^2+ (Offermann and Simon J Biol Chem 270: 15175-80 (1995)). This calcium release can be monitored ratiometrically using Fura-2 as a fluorescent indicator dye (Tsien et al. Cell Calcium 6: 145-57 (1985)) (FIGS. 11A-C). This heterologous expression system has been previously used to identify ligands for taste receptors (Chandrashekar et al. Cell 100: 703-11 (2000)).
(§2) Briefly, transfected cells were washed once in Hank's balanced salt solution with 11 mM D-glucose and 10 mM HEPES, pH 7.4 (assay buffer) and loaded with 2 μM Fura-2 AM (Molecular Probes) at room temperature for 90 min, with rotation. Loaded cells were washed twice with assay buffer and placed on a micro-perfusion chamber (Bioptech). The chamber was mounted on top of a Olympus IMT2 inverted microscope, and imaged with an Olympus DPlanApo 40× oil immersion objective lens. Samples were illuminated by a 75 W xenon bulb, and a computer-controlled filter changer (Lambda-10; Shutter Instruments) was used to switch the excitation wavelength. A cooled CCD camera (Photometric) was used in detecting fluorescence. GFP-positive cells within a field were identified using an excitation wavelength of 400 nm, a dichroic 505 nm long-pass filter and an emitter bandpass of 535 nm (Chroma Technology). In the same field, calcium measurements were performed at an excitation wavelength of 340 nm and 380 nm, and an emission wavelength of 510 nm. Agonists were diluted in assay buffer and solution changes accomplished by micro-perfusion pump (Bioptech). Fura-2 fluorescence signals (340 nm, 380 nm and the 340/380 ratio) originating from GFP-positive cells were continuously monitored at 0.4- or 1-second intervals and collected using Axon Imaging Workbench 4.0 software (Axon). Instrument calibration was carried out with standard calcium solutions (Molecular probes) in glass bottom dishes (MatTek Corp.).

MAS1 = assay: Intracellular Ca2+ release assay (Fura-2), MAS1 in HEK-Gα15 cells; format: cell-based; conditions: for Activation of MAS1: HEK-Gα15 cells
MRGA4 [3] = target: T1, MRGA4; assay: Intracellular Ca2+ release assay, MRGA4 in HEK cells lacking Gα15; format: cell-based; conditions: ligand 1 μM
Experimental: as §1, with “(Roche). Transfection efficiencies were estimated by visualization of GFP fused to the C-terminus of MrgA1 and A4, and were typically >60%. Fusing GFP to the C-termini of the MrgA coding sequences additionally allowed for visual confirmation of the intracellular distribution of the receptors and their membrane integration in the transfected cells (FIG. 11D).” for “(Roche).”
as §2, with “Corp.). […]” for “Corp.).”

MRGA1 [4] = target: T2, MRGA1; assay: Intracellular Ca2+ release assay, MRGA1 in HEK cells lacking Gα15; format: cell-based; conditions: ligand 1 μM
Experimental: as §1, with “(Roche). Transfection efficiencies were estimated by visualization of GFP fused to the C-terminus of MrgA1 and A4, and were typically >60%. Fusing GFP to the C-termini of the MrgA coding sequences additionally allowed for visual confirmation of the intracellular distribution of the receptors and their membrane integration in the transfected cells (FIG. 11D).” for “(Roche).”
as §2, with “Corp.). […]” for “Corp.).”

[5] = test system: chronic pain models, including neuropathic pain; conditions: intrathecal injection; several chronic pain models; cited from earlier work

RFRP-1: RFamide ligand produced from a different precursor (MPHSFANLPLRF; ends and bridges not checked; UniProt Q9HCQ7 81-92, looked up)
Activation of MrgA4 in dose-response experiments (MRGA4 [1]): Neither receptor showed strong activation
Activation of MrgA1 in dose-response experiments (MRGA1 [2]): Neither receptor showed strong activation

Angiotensin II: peptide hormone previously reported to activate MAS1 (DRVYIHPF; Angiotensin-2; UniProt P01019 25-32, looked up)
Activation of MAS1 (MAS1): No response was detected

CCCCC/C=C\C/C=C\C/C=C\C/C=C\CCCC(=O)O [Arachidonic Acid]
Calcium response of MRGA1-expressing cells to ligand (MRGA1 [2]): only very weakly activated

NPY: neuropeptide
Calcium response of MRGA4-expressing cells to ligand (MRGA4 [3]): lost completely
Calcium response of MRGA1-expressing cells to ligand (MRGA1 [2]): some level of activation; also recorded: strongest responses
Calcium response of MRGA1-expressing cells to ligand (MRGA1 [4]): lost completely

CGRP-II: neuropeptide, calcitonin gene-related peptide
Calcium response of MRGA4-expressing cells to ligand (MRGA4 [3]): considerably diminished
Calcium response of MRGA1-expressing cells to ligand (MRGA1 [2]): some level of activation; also recorded: strongest responses
Calcium response of MRGA1-expressing cells to ligand (MRGA1 [4]): considerably diminished

neurokinin A: peptide hormone
Calcium response of MRGA1-expressing cells to ligand (MRGA1 [2]): did not activate

Angiotensin I: peptide hormone previously reported to activate MAS1 (DRVYIHPFHL; Angiotensin-1; UniProt P01019 25-34, looked up)
Activation of MAS1 (MAS1): No response was detected

SYSMEHFRWGKPVGKKRRPVKVYPNGAEDESAEAFPLEF [ACTH]
Activation of MAS1 (MAS1): Nor did MAS1 respond
Calcium response of MRGA4-expressing cells to ligand (MRGA4 [3]): considerably diminished
Calcium response of MRGA1-expressing cells to ligand (MRGA1 [2]): some level of activation; also recorded: strongest responses
Calcium response of MRGA1-expressing cells to ligand (MRGA1 [4]): considerably diminished

RFRP-2: RFamide ligand produced from a different precursor (SAGATANLPLRS; ends and bridges not checked; UniProt Q9HCQ7 101-112, looked up)
Activation of MrgA4 in dose-response experiments (MRGA4 [1]): Neither receptor showed strong activation
Activation of MrgA1 in dose-response experiments (MRGA1 [2]): Neither receptor showed strong activation

neurokinin B: peptide hormone
Calcium response of MRGA1-expressing cells to ligand (MRGA1 [2]): did not activate

schistoFLRF: RFamide ligand, SEQ ID NO: 115 (PDVDHVFLRF; ends and bridges not checked)
Calcium response of MRGA1-expressing cells to ligand (MRGA1 [2]): weakly activated

AGEGLNSQFWSLAAPQRF-NH2 [NPAF]
Antinociceptive effect [5]: long-lasting antinociceptive effects
EC50 (MAS1; HEK cells, RF-amide ligands, read-out: Relative efficacy of activation of MAS1): > 1 µM
Activation of MAS1 (MAS1): did not respond well
Calcium response of MRGA4-expressing cells to ligand (MRGA4 [3]): respond
Activation of MrgA1 in dose-response experiments (MRGA1 [2]): much less effective
Calcium response of MRGA1-expressing cells to ligand (MRGA1 [2]): significantly lower
Calcium response of MRGA1-expressing cells to ligand (MRGA1 [4]): no response

Phe-Met-Arg-Phe-amide [FMRFamide]
Calcium response of MRGA1-expressing cells to ligand (MRGA1 [2]): most efficient responses
Calcium response of MRGA1-expressing cells to ligand (MRGA1 [2]; listed as FMRF): strongest responses

CCCCC[C@H](O)/C=C/[C@H]1[C@H](O)CC(=O)[C@@H]1CCCCCCC(=O)O [Prostaglandin-E1]
Calcium response of MRGA1-expressing cells to ligand (MRGA1 [2]): only very weakly activated
